Results reported in US20210403541A1 (Merck Sharp & Dohme, published 2021).
Non-standard residues stand in square brackets, D forms with d. No end group written: not given here. pS = N[C@@H](COP(=O)(O)O)C(=O)O

T1: pT212/pS214GC (69AXY) (human, phosphothreonine 212 and phosphoserine 214 of tau, printed GCGSPGTPGSRSR(pT)P(pS)LPTPPTREPK)
T1 construct: also called T-pT212pS214GC
T1 peptide: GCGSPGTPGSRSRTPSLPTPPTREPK

T2: pSer412Cys (74AXY) (human)
T2 peptide: NV[pS]STGSC

T3: pS396/400/404GC (84AWK) (human, phosphoserines at 396, 400 and 404 of tau, printed GCRENAKAKTDHGAEIVYK(pS)PVV(pS)GDT(pS)PRHL)
T3 construct: also called T-pS396/400/404GC
T3 peptide: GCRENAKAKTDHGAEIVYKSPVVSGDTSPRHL

B1: V5-AFM-hIgG4-S228P (antibody, V domains shown)
VH: EVQLVESGGGLVQPGGSLRLSCAASGFTFSSFALNWVRQAPGKGLEWVGHIRSKTNNYVTFYAASVKGRFTVSRDDSQNTAYLQMNSLKTEDTATYYCVRRGPRDSWFGYWGQGTLVTVSS
VL: DIVMTQSPLSLPVTLGEPASISCRSSQKIVHRNANTYLEWYLQKPGQSPQLLIYTVSNRFSGVPDRFSGSGSGTDFTLKISRVEAEDLGVYYCFQGSYLPLTFGGGTKVEIK
notes: also called V5-AFM-IgG4-S228P
B2: V8-AFM-hIgG1-LALA (antibody)
heavy: not shown
light: DIVMTQSPLSLPVTLGEPASISCRSSQKIVHRNANTYLEWYLQKPGQSPQLLIYTVSNRFSGVPDRFSGSGSGTDFTLKISRVEAEDLGVYYCFQGSYLPLTFGGGTKVEIKRTVAAPSVFIFPPSDEQLKSGTASVVCLLNNFYPREAKVQWKVDNALQSGNSQESVTEQDSKDSTYSLSSTLTLSKADYEKHKVYACEVTHQGLSSPVTKSFNRGEC
notes: Human IgG1 L234A L235A/kappa; also called V8-AFM-IgG1-LALA
B3: V8-AFM-hIgG1-LALA-YTE (antibody)
heavy: EVQLVESGGGLVQPGGSLRLSCAASGFTFSSFALNWVRQAPGKGLEWVGHIRSETNNYVTFYAASVKGRFTVSRDDSQNTAYLQMNSLKTEDTATYYCVRRGPRDSWFGYWGQGTLVTVSSASTKGPSVFPLAPSSKSTSGGTAALGCLVKDYFPEPVTVSWNSGALTSGVHTFPAVLQSSGLYSLSSVVTVPSSSLGTQTYICNVNHKPSNTKVDKKVEPKSCDKTHTCPPCPAPEAAGGPSVFLFPPKPKDTLYITREPEVTCVVVDVSHEDPEVKFNWYVDGVEVHNAKTKPREEQYNSTYRVVSVLTVLHQDWLNGKEYKCKVSNKALPAPIEKTISKAKGQPREPQVYTLPPSRDELTKNQVSLTCLVKGFYPSDIAVEWESNGQPENNYKTTPPVLDSDGSFFLYSKLTVDKSRWQQGNVFSCSVMHEALHNHYTQKSLSLSPGK
light: DIVMTQSPLSLPVTLGEPASISCRSSQKIVHRNANTYLEWYLQKPGQSPQLLIYTVSNRFSGVPDRFSGSGSGTDFTLKISRVEAEDLGVYYCFQGSYLPLTFGGGTKVEIKRTVAAPSVFIFPPSDEQLKSGTASVVCLLNNFYPREAKVQWKVDNALQSGNSQESVTEQDSKDSTYSLSSTLTLSKADYEKHKVYACEVTHQGLSSPVTKSFNRGEC
notes: Human IgG1 L234A L235A YTE/kappa; also called V8-AFM-IgG1-LALA-YTE
B4: V8-AFM-hIgG4-S228P (antibody)
heavy: not shown
light: DIVMTQSPLSLPVTLGEPASISCRSSQKIVHRNANTYLEWYLQKPGQSPQLLIYTVSNRFSGVPDRFSGSGSGTDFTLKISRVEAEDLGVYYCFQGSYLPLTFGGGTKVEIKRTVAAPSVFIFPPSDEQLKSGTASVVCLLNNFYPREAKVQWKVDNALQSGNSQESVTEQDSKDSTYSLSSTLTLSKADYEKHKVYACEVTHQGLSSPVTKSFNRGEC
notes: also called V8-AFM-IgG4-S228P
B5: HmzTa1505-hIgG4-S228P (antibody)
heavy: not shown
light: DIVMTQSPLSLPVTLGEPASISCRSSQNIVHSNANTYLEWYLQKPGQSPQLLIYTVSNRFSGVPDRFSGSGSGTDFTLKISRVEAEDLGVYYCFQGSHLPLTFGGGTKVEIKRTVAAPSVFIFPPSDEQLKSGTASVVCLLNNFYPREAKVQWKVDNALQSGNSQESVTEQDSKDSTYSLSSTLTLSKADYEKHKVYACEVTHQGLSSPVTKSFNRGEC

Legend:
pT212/pS214GC (69AXY) = biological target: T1, pT212/pS214GC (69AXY); test: peptide-coated ELISA (1 µg/ml peptide 69AXY coat, anti-human IgG-HRP, ABTS, OD405)
Description: (§1) Binding specificity of the high affinity antibodies described herein was assessed with various tau peptides by a peptide-coated ELISA. Plates were coated with 50 μl of 1 μg/ml peptides 69AXY, 70AXY, 74AXY, 84AWK, 25AWF, or 24AWF in PBS for overnight at 4° C. On the next day, the plates were washed 3 times, blocked with 200 μl of superblock for 1 hr at room temperature, then washed 3 times again. Antibodies were diluted at 1:5 serial dilution in ELISA buffer starting from 10 μg/ml. The plates were incubated with 50 μl of serially diluted antibodies at room temperature for 1 hr and washed 3 times.

pSer412Cys (74AXY) = biological target: T2, pSer412Cys (74AXY); test: peptide-coated ELISA (1 µg/ml peptide 74AXY coat, anti-human IgG-HRP, ABTS, OD405)
Description: as §1

pS396/400/404GC (84AWK) = biological target: T3, pS396/400/404GC (84AWK); test: peptide-coated ELISA (1 µg/ml peptide 84AWK coat, anti-human IgG-HRP, ABTS, OD405)
Description: as §1

human FcRn = human FcRn (human, UniProt P55899 24-297; P61769 21-119, limits assumed); test: SPR (Biacore), antibody captured by anti-human kappa, FcRn injected, pH 6.0, steady-state fit; pH 6.0
Description: (§2) Anti-human kappa antibody was amine coupled to a CMS chip. Each antibody was captured to 200-300 RUs. Binding assays were performed using PBS running buffer containing 0.05% Tween-20, adjusted to either pH 6.0 or 7.4. Titration samples were also prepared using the corresponding pH buffer for the assay. Titrating concentrations (1200 nM top, 6-point, 3-fold dilution series and two zeros) of human or cyno FcRn were injected over the captured mAbs. Each sample injection was followed by two 30-second injections of 10 mM glycine, pH 1.5 and a 12-second injection of 10 mM NaOH to regenerate the surface for subsequent antibody capture and injection. All assays were run on Biacore T200 and/or 4000 instruments (GE Healthcare) and the data were fit to a steady-state approximation model using Biaevaluation software. Affinity at pH 6.0 was calculated as equivalent to concentration at half maximal binding signal in the steady-state approximation (TABLE 9).

[1] = biological target: cynomolgus monkey (cyno) FcRn (cynomolgus monkey, UniProt Q8SPV9 24-297; Q8SPW0 21-119, limits assumed); test: as above
Description: as §2

[2] = biological target: T4, tau species in brain homogenates from mutant tau mice (rTg(tauP301L)4510), sarkosyl insoluble tau seeds; test: competitive ELISA, tau mutant mice brain SI tau seeds (4 ng protein)
T4 construct: also called Tau mutant mice brain; SI Tau seeds
Description: (§3) Binding affinities of various anti-tau-pS413 antibodies described herein for endogenous tau species were determined in brain homogenates and CSF samples from AD patients and preclinical models. Briefly, samples were pre-incubated with different concentrations of various anti-tau-pS413 antibodies, or respective isotype controls. Following a one-hour pre-incubation period, the antigen-antibody (Ag-Ab) mixture was added to plates pre-coated with a total tau capture antibody (Innotest ELISA kit).
Tissue homogenates were prepared using 1% sarkosyl buffer with several high-speed centrifugation steps to enrich for insoluble proteins including tau.

[3] = biological target: T5, phosphorylated tau protein monomer (35 AWM); test: competitive ELISA, phosphorylated tau protein monomer 35 AWM (1 ng)
T5 construct: also called recombinant phosphorylated tau protein monomer

[4] = biological target: T6, tau species in CSF of African Green Monkeys (African Green Monkey); test: competitive ELISA, fresh AGM CSF (75 µl of neat CSF)
T6 construct: also called Fresh African Green Monkey (AGM) CSF
Description: as §3

Binder	binding result (pT212/pS214GC (69AXY))	binding result (pSer412Cys (74AXY))	binding result (pS396/400/404GC (84AWK))	Human FcRn fold change (relative to HmzTa1505-hIgG4-S228P) (human FcRn) [fold]	Kd (human FcRn) [nM]	Cyno FcRn fold change (relative to HmzTa1505-hIgG4-S228P) [1] [fold]	Kd [1] [nM]	EC50 [2] [nM]	EC50 [3] [nM]	EC50 [4] [nM]
B1	no binding (tested: 10 µg/ml)	no binding (tested: 10 µg/ml)	no binding (tested: 10 µg/ml)							
B2	no binding (tested: 10 µg/ml)	no binding (tested: 10 µg/ml)	no binding (tested: 10 µg/ml)	1	230	1.6	160			
B3	no binding (tested: 10 µg/ml)	no binding (tested: 10 µg/ml)	no binding (tested: 10 µg/ml)	6.5	34	11	24	0.004	0.055	0.008
B4	no binding (tested: 10 µg/ml)	no binding (tested: 10 µg/ml)	no binding (tested: 10 µg/ml)	1	210	1	260			
B5				1	220	1	260	0.67	6.73	2.08
